Results taken from the supplement of paper PMC9170038.

Test system: K4 kissing-loop RNA reporter
Test: apparent KD of K4 kissing-loop reporter; higher = weaker reporter binding
Conditions: Eterna round: R107
Experimental: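 RNA-MaP round R107: designed RNA switches with theophylline, tryptophan, arginine or FMN aptamers are transcribed on-chip within common flanks. They are titrated with a labelled K4 kissing-loop RNA reporter in RNA-MaP buffer (100 mM Tris pH 7.5, 80 mM KCl, 4 mM MgCl2), without ligand or with the indicated ligand. Median apparent KD per design.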

[1] = input ligand: theophylline 20 uM
[2] = input ligand: tryptophan 2.4 mM
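Further: bound reporter read as fluorescence of individual clusters on recovered sequencing chips by microscopy, with normalized cluster intensities fitted with a binding model.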

| Sequence | apparent KD of K4 kissing-loop reporter (input ligand: FMN 200 uM) [nM] | apparent KD of K4 kissing-loop reporter (input ligand: arginine 13.2 mM) [nM] | apparent KD of K4 kissing-loop reporter (input ligand: none) [nM] | apparent KD of K4 kissing-loop reporter [1] [nM] | apparent KD of K4 kissing-loop reporter [2] [nM] |
| --- | --- | --- | --- | --- | --- |
| CGAGUGAUGUUCGUUCGUAUAUUUGGGUGACAGGAUAUGCGGAAACGCAGAAGGGUCACCUUCGGGUUACCCGAAUUGGCGUUAU [Model 1] | 372 | 275 | 427 | 322 | 298 |
| CGAGUGAUGUUCGUUCGUUUAUUUCGUUGACAGGAUAUGCGGAAACGCAGAAGGGUCACCUUUGAGUUAACGGAAUUAACGUUAU [Ex FMN A 28] | 561 | 452 | 544 | 490 | 456 |
| CGAGUGAUGUUCGUUCGUUUAUUUUUUUGACAGGAUAUGCGGAAACGCAGAAGGGUCACCUUUGAGUUAAAAGAAUUUACGUUAU [Ex FMN A 25] | 460 | 475 | 576 | 465 | 414 |
| CGAGUGAUGUUCGUUCUUUUAUUUUUUUGACAGGAUAUGCGGAAACGCAGAAGGGUCACCUUUGAGUUAAAAGAAUUUAAGUUAU [Ex FMN A 24] | 309 | 284 | 353 | 287 | 235 |
| CGAUACGGAAAUACGUGUCUCUAUUCAGAAGGAGCGUGUUUGUACACAGGUAGGUCGCUGAAAUUUAAACUAGUGAUGUUAGACU [JR_SSArginiA_Sub003] | 1160 | 816 | 1160 | 895 | 929 |
| CGAUCUUGGUCGGCCGCCACUACACCCACACCAAAUAGGAAAGUAGCGAGUGAUGUUUGUGACGUUAGGACCGGGACCACUGGUC [theeternabot_sameState_KL_Trp_B_25] | 586 | 321 | 526 | 564 | 392 |
| CGCAGUGAUGUUGCGAAUAUAAUGCAUUCAGAGGAUAUUCGUUUGGGAAGAAGGCUGAAUCGUUCUUCGAGUGAUGUUCGAGGAA [Same State FMN A GF 17] | 141 | 133 | 154 | 136 | 132 |
| CGCAGUGAUGUUGCGAGUUAAUUCAGGGAAGGAGCGCCACAGAUGGCAGGUAGGUCGCCCACGCAGUGAUGUUGCGUAUUCGGGU [Exclusion Arginine A GF 4] | 94.3 | 96.8 | 95.7 | 111 | 80.6 |
| CGCAGUGAUGUUGCUAUUAUUCUUGGUUAACGAGGACCGGUACGGCCGCCACUCGAUUUCUAUCUAGUCCAGUGUUUUUUUGAGU [whbob_EX_Tryp_A_t7] | 347 | 392 | 470 | 451 | 250 |
| CGCCAGUGAUGUUGGCGCAGCUACCGGGAAGGAGCGCCGUAGUCGGCAGGUAGGUCGCCCGGGCAGUGAUGUUGCCUCAUACCGU [Exclusion Arginine A GF 21] | 229 | 247 | 258 | 347 | 236 |
| CGCCAGUGAUGUUGGCGCAGGUUGCGGGAAGGAGCGCGCGUAAGCGCAGGUAGGUCGCCUGCAGGCCAGUGAUGUUGGCAAUCUG [Same State Arginine A GF 30] | 130 | 110 | 143 | 111 | 116 |
| CGCCAUAACACGGCCGCCACUCAUCAAGCUCAGUGAUGUUGAGCAGCAGCUGCAAUCGCGAUUACGAGGACCGGGUGCUGUCUGU [theeternabot_sameState_KL_Trp_B_50] | 286 | 329 | 314 | 357 | 231 |
| CGCGCCCAGCCGGAUACCAGUGACCCGCUGGGAACCGCGGGCCCAGAGUGAUGUUCGGGACACCCUUGGCAGCCGCCUGGGCGGU [#2 Same State - Theophylline B Attempt #10 (HarryS)] | 2380 | 576 | 1270 | 576 | 1570 |
| CGCGGCCGGCCGGAUACCAGUGACCCGCUGGCAACCGCGGGCCCAGAGUGAUGUUCGGGACACCCUUGGCAGCCGCCUGGGCGUG [#2 Same State - Theophylline B Attempt #4 (HarryS)] | 521 | 309 | 483 | 694 | 396 |
| CGCUGGGCGAGUGAUGUUCGCUCACGUGAUACCAGUGCCAUCCAACACCCUUGGCAGCACGCGGGCAGUGAUGUUGUCCUUGUAU [Exclusion Theophylline A GF6] | 130 | 117 | 127 | 109 | 119 |
| CGGACUGCAGGAAGGAGCGGCGGACGGAGUGAUGUUCCGGGUAGUGAUGUUACCAAACACCGCCAGGUAGGUCGCCUGUUGCUCC [Same State Arginine B GF8] | 161 | 134 | 170 | 146 | 147 |
| CGGAGUGAUGUUCCGUUAAUUCCUUAUUUACGAGGACCGGUACGGCCGCCACUCGAUUUUGCUUUUAUUUAAUGUUUGGAAAUUU [JR_SSTryptoA_Sub007] | 256 | 274 | 269 | 317 | 122 |
| CGGAUGUAGUGAUGUUAUAUUAGAUGUAGACGAGGACCGGUACGGCCGCCACUCGUGAUGGCUGCUAGCACGUUUCGAGGUUUGC [ExTryptoA.Cp] | 515 | 624 | 604 | 438 | 489 |
| CGGUUUGGUUGAGAGGUUGGGCCGAAUGAUACCAGUAUAUAAGAAUACCCUUGGCAGCAUAAGAAAGAUAUAGUGAUGUUGUAUA [SSTheophA.J] | 475 | 537 | 495 | 513 | 507 |
| CGUACAUCUUUUCGCGGAGUGAUGUUCUCGCGAGGACCGGUACGGCCGCCACUCGAAUUGUUAUCUGGCGAAAAUUGUCUAUAAA [theeternabot_exclusion_KL_Trp_A_33] | 393 | 273 | 352 | 318 | 410 |
| CGUGAAGCCCAGAGGUGAUGUAUAGUAUCGCGAGGACCGGUACGGCCGCCACUCGUGAAGAGAAAGGAGUGAUGUUCCGUAAUGG | 480 | 380 | 595 | 406 | 165 |
